Experimental data as given in article PMC12098241.

Tests used:
[1] = target: SIRPα-αMSLN^M4F5 local inhibitory checkpoint monoclonal antibody (LicMAb); assay: flow cytometry on cells; binding to SUIT-2-MSLN cells in the presence of 2.5 µM rhMSLN as competitor (Supplementary Figure S6b, c)
[2] = target: SIRPα-αMSLN^M4F5 local inhibitory checkpoint monoclonal antibody (LicMAb); assay: flow cytometry on cells; binding to SUIT-2-MSLN cells in the presence of saturating concentrations of soluble MSLN (Supplementary Figure S7a)

recombinant human MSLN (rhMSLN) (from UniProt Q13421 37-598) (natural protein)
percent reduction of the binding of m2 to SUIT-2-MSLN cells by 2.5 µM rhMSLN [1]: 40%
percent reduction of the binding of m2 to SUIT-2-MSLN cells by saturating soluble MSLN [2]: 53%
